Assay: yeast display, Sf9 membrane polyspecificity reagent, FACS + sequencing; frameworks hold sequencing errors
In short: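 Sorting gates, low and high (top ~1%), were placed on anti-HA fluorescence to track expression and on streptavidin fluorescence to track reagent binding. A clone's polyreactivity label is taken from the gate it came out of. The reagent was 10% biotinylated, detergent-solubilized Sf9 membrane, applied for 1 hour at 4 °C to galactose-induced yeast display cells.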
In the case of “QVQLVEYVELLVQAVGILSLSCAASGLTIYYYIMGWYLHAPRKEREFLAAISNSGCRPYYADSVNGRFTISRDNAKNTDYLQMNSLIPEDTPVYYCAAQSRYGGKFLYWGQGTQVTVSS”, the “polyreactivity (PSR sort gate)” value is reported as “high polyreactivity”. For “QVQLVGSGGGLVQAGGSLRLSCAASGRIFDKNAMGWYRQAPGKERELVAAISGGGRTYYADSVKGRFTISRDNAKNTVYLQMNSLKQEDTAVYYCNVPYYYTGGSYGYWGQGTQVTVSS”, the “polyreactivity (PSR sort gate)” value was “low polyreactivity”. In the case of “QVQLVHSGGGLVQAGGILRLSCAASGYTFGYYTRGWYRQAPGKERELVASIDSGGGTNYADSVKGRFSISRDNAKKTVYLQMNSLKPEDNAVYYCAAESPLYWVEDFESGWRFYYCGQGTQVTVSS”, the “polyreactivity (PSR sort gate)” value is reported as “low polyreactivity”. With “QVQLVHSGGGLVQEGGSLRLSCAASGSIFYSYGMGWYRQAPGKERELVAAITSSGGGTYYADSVKGRFTISRDNAKNNVYLQMNSVKAEDTAVYYCAADDRNYNYYPTFYYWGQGTQVTVSS” the “polyreactivity (PSR sort gate)” value was “low polyreactivity”. In the case of “QVQLVKSGGGLVQAGGSLRLSCAASGSTFYNDMGGYIHSPGKEIELVAAISIGGSTYYADSVKGRFTISRDNANHTVYLQMSCLKPEDTAVYYCAAVWYTSRQKYDYWGQGTQVTVTS”, the “polyreactivity (PSR sort gate)” value is reported as “low polyreactivity”. For “QVQLVKSGGGLVQAGGSLRLTCAASGFTFFVYAMGWYRQAPGKETELVAAITSSGGSTYYADSVKGRFTISRDNAKNTVYLQMNSLKPEDTAVYYCAPDRYSYLGYPYEYEYWGQGTQVTVSS”, the “polyreactivity (PSR sort gate)” value was “low polyreactivity”. With “QVQLVQSGGGLVQAGGSLRLSCAASGIIFYVYAMGWYRQAPGKERELVAAISRSGGRTYYADSVKGRFTISRDNPKNTVYLQMNSLKPEDTAVYYCAAVYPRQVSQVWRDDYWGQGTQVTVSS” the “polyreactivity (PSR sort gate)” value was “high polyreactivity”. For “QVQLVQSGGGLVQAGGSLRLSCAASGLTFYYNVMGWYRQATGKERELVAAITSGGRTYYGDSVKGRFTISRDNAKNTVYLQMNSLKPEDTAVYYCARPYSRAYDYWGQGTEVTVSS”, the “polyreactivity (PSR sort gate)” value was “high polyreactivity”. For “QVQLVQSGGGLVQAGGSLRLSCAASGRIFRLSGMGWYRQAPGKERELVAAITRGASTYYADSVKGRFTISRDNAKNTVYLELNSLKPEDTAVYYCAAEGLITGGYWHLYYWGHGTQVTVSS”, the “polyreactivity (PSR sort gate)” value was “high polyreactivity”. In the case of “QVQLVQSGGGLVQAGGSLRLSCAASGRIFVDNAMAWYRQAPGKERELDAGLTTGGSTYYADSVKGRFTISRDNAKNTVYLQMNSLKPEDTAVYYCNARDHALHRDVLYWYGFDYWAQGTQVTVSS”, the “polyreactivity (PSR sort gate)” value is reported as “low polyreactivity”. In the case of “QVQLVQSGGGLVQAGGSLRLSCAASGSIFGDYAMGWYRQAPGKEREFVARINVSGTSTFYADSVKGRFTISRDNAKNTVYLQMNSLKPEDTAVYYCAARGLPSNYYYYVHGYIMDYWGQGTQVTVSS”, the “polyreactivity (PSR sort gate)” value is reported as “low polyreactivity”. In the case of “QVQLVQSGGGLVQAGGSLRLSCAASGSIIGTYAMGCYRQAPGKERELVADINSGGSTYYADSVKGRFTISRDNAKNTVYLQMNSLKPDDTAVYYCAATGGVLYGTWLSYDRWGGGYWGQGTQVTVSS”, the “polyreactivity (PSR sort gate)” value is reported as “low polyreactivity”. With “QVQLVQSGGGLVQAGGSLRLSCAASGSTFPQNAMGWNRQAPGKERELVAVISRSGGNTYYADSVKGRFTISRDNAKNTVYLQMNSLKPEDTAVYYCATRVNTTYDYWGQGTQVTVSS” the “polyreactivity (PSR sort gate)” value was “low polyreactivity”. With “QVQLVQSGGGLVQAGGSLRLSCAASGSTFSGYTMGWYRQAPGKEREFVAAISSRGGSTYYADSVKGRFTISRDNAKNTVYLQMNSLKPEDTAVYYCAAKVWARVDGRQFRMEYWGQGTQVTVSS” the “polyreactivity (PSR sort gate)” value was “high polyreactivity”. For “QVQLVQSGGGLVQAGGSLRLSCAASGSTFYVYAMGWYRQAPGKEREFVAAISRSGGRTYYAVSVKGRFTISRDNAKNTVYLQMNSLKPEDTAVYYCNARDSLRYYTYYFEDYRVGYDYWGQGTQVTVSS”, the “polyreactivity (PSR sort gate)” value was “high polyreactivity”. In the case of “QVQLVQSGGGLVQAGGSLRLSCDASGSMFLVYAMGWYRQAPGKERELVAAISRSGRTYADSVKGRFTISRDNAKNTVYLQMNSLKPEDTAVYYCAAGTKRRFEGDYWVQGTQVTVSS”, the “polyreactivity (PSR sort gate)” value is reported as “high polyreactivity”. With “QVQLVQSGGGLVQAGGSLRVSCAPSGRIYAMGWSRQAPGKERELVARITKSGTSTYYADSVKGRFTISRDNAKNTVYLQMNSMKPEDTAVYYCATATFYRSVLYGYWGQGTQVTVSS” the “polyreactivity (PSR sort gate)” value was “high polyreactivity”. For “QVQLVQSGGGLVQAGGSLSLICAASGRIFGYYAMGWYRQAPGKERELVDTITFGGGSTYYADSVKGRFTISRDNAKNTVYLQMNSLKPEDTAVYYCAADCGYLGIYGDEYSWGQGTQVTVSS”, the “polyreactivity (PSR sort gate)” value was “low polyreactivity”. For “QVQLVQSGGGLVQAGGSLSLSCAGSGSTFHNYAMGWYRQAPGQEREMVAGISVRGGGTYYAYSVKGRFTISRDNANNTVYVQMNSLKPEETAVYYCAASRSRYSVNWYNYWGQGTQVTVSS”, the “polyreactivity (PSR sort gate)” value was “high polyreactivity”. In the case of “QVQLVQSGGRLVQAGGSLRLSCAASGLIFVHYTMGWYRQAPGKERELVASINSGGSTNYADSVKGRFTISRDNAKNTVYLQMISLKPEDTAVYYCADRRVVFWRRMYYWGQGTQVTVSS”, the “polyreactivity (PSR sort gate)” value is reported as “high polyreactivity”. With “QVQLVQSRGGLVHAGGSLRFSSAATGITILRYAMGWYIQAPGKERELVAGISWDGGRTYNADSVKGRFTISRDNAKNTVFLQMNSMKPEDTEVYYCADKPSRYRVSLFDYWGHGTQVTVSS” the “polyreactivity (PSR sort gate)” value was “low polyreactivity”. In the case of “QVQLVQSRGGLVQAGGSLRLSCAASGSTFSGNAMGWYRPAPGKEREFVAAITSSGGSTYYADSVKGRFTISRDNAKNSVYLQMNSLKPEDTAVYYCATDNPFLWWFRPDQHGMGYWGQGTQVTVSS”, the “polyreactivity (PSR sort gate)” value is reported as “low polyreactivity”. In the case of “QVQLVQSWPGLVQEGGSLRLSSAESGYTIRWYAMGCYRQAHGKERELVASITSGGNTNYADSVKGRFTISRDNAKNTVYLQMNRLKTEDTEVYYCAATRGYYRLDYWGQGTQVTVSS”, the “polyreactivity (PSR sort gate)” value is reported as “high polyreactivity”. With “QVQLVQTGGGLVQAGGSLRLSCAASGRTFRYYAMGLYRQAPGKEREFVATITYSSGSTYYADSVKGRFTISRDNAKNTVYLQMNSLKPEDTAVYYCNAEGYCNSYGYWGQGTQVTVSS” the “polyreactivity (PSR sort gate)” value was “low polyreactivity”. In the case of “QVQLVVSGGGLVQAGGSIRLSCAASGRIFFYNAMGWYRQAPGKERELVAGISSGGGSTYYADSVKGRFTISRDNAKNTVYLQLNSLKPDDPAVYYCNKVVYSYSVGVGEYDYWGQGTQVTVSS”, the “polyreactivity (PSR sort gate)” value is reported as “high polyreactivity”. With “QVQLVVSGGGLVQAGGSLRLRCAASGRTFVRYAMGWSRQAPGKERELVARITTRGTSTYYADSVKGRFTISRDNAKNTVYLLLNSLKPEDTAVYYCNKVRTFRDKSRYDYWGQGTQVTVSS” the “polyreactivity (PSR sort gate)” value was “low polyreactivity”. For “QVQLVVSGGGLVQAGGSLRLRCAASGRTIWPYAMGWYRQAPRKESEFDAAITWTVGRTYYADSVKGRFTISRDNAKNTVYLQMNSLKPDDTAVYYCNARSYSQTLFGYPDDYWGQGTQVTVSS”, the “polyreactivity (PSR sort gate)” value was “high polyreactivity”. With “QVQLVVSGGGLVQAGGSLRLSCAASGRTFRSYAMGWYRQAPGKERELVAAISYGGGSTYYADSVKGRFTISRDNAKNTVYLQMNSLKPEDTAVYYCAAAVYKRGGYDYWGQGTQVTVSS” the “polyreactivity (PSR sort gate)” value was “high polyreactivity”. With “QVQLVVSGGGLVQAGGSLRLSCAASGSFFPIYAMGWYRQAPGKERELVAAITSGGSTNYADSVKGRFTISRDNAKNTVYLQMNSLKPEDTAVYYCAAGGPDHADRYEYWGQGTQVTVSS” the “polyreactivity (PSR sort gate)” value was “low polyreactivity”. For “QVQLVVSGGGLVQAGGSLRLSCAASGSIFNVYAMGWYRPAPGKARELVAAITNGDSTNYADSVKGRFTISRDTAKNTVYLQMHSLKPEDTAVYYCNARAPSEYYGLEYDDWGQGTQGTVSS”, the “polyreactivity (PSR sort gate)” value was “low polyreactivity”. In the case of “QVQLVVSGGGLVQAGGSLRLSCAASGSIFRYYAMGWFRQAPGQERELVASITRGGTSTYYADSVKGRFTISRDNAKNTVYLQMNSLKPDDTAVYYCAAKGYLSRYDNWGLGTQVTVSS”, the “polyreactivity (PSR sort gate)” value is reported as “high polyreactivity”. For “QVQLVVSGGGLVQAGGSLRLSCAASGSIFVSNAMGWYRQAPGKEREFVAAITGSGGSTYYADSVKGRFPISRDNAKNTVYLQMNSLKPEDTAVYYCNAGLIHFYAGNYDLYDYWGQGTQVTVSS”, the “polyreactivity (PSR sort gate)” value was “low polyreactivity”. For “QVQLVVSGGGLVQAGGSLRLSCAASGSILDSNAMGWYRQAPGKERELVAAITSGGSTYYADSVKGRFTISRDNAKNTVYLQMNSLKPEDTAVYYCNANGVQYFLYGYWGQGTQVTVSS”, the “polyreactivity (PSR sort gate)” value was “low polyreactivity”. With “QVQLVVSGGGLVQAGGSLRLSCAASGYTFDDYAMAWYRQAPGKERELVAAISRGGSTYYADSVKGRFTISRDNAKNTVYLQMNSLIPEDTSVYYCAAVYRVRKITNDYWGQGTQVTVSS” the “polyreactivity (PSR sort gate)” value was “high polyreactivity”. In the case of “QVQLVVSGGGLVQAGGSLRLSCSASGYTFWRYAMGWYRQAPGKERELVAAISQSGGRTYYADSVKGRYTISRDNAKNTVYLQMNSLKPEDTAVYFCATSYSQGDDYWGQGTQVTVSS”, the “polyreactivity (PSR sort gate)” value is reported as “high polyreactivity”. In the case of “QVQLVVSGGGLVQEGGSLRLSCAASGGLFSLYAMGWYRQAPGKEREFVSAISFSGASTYYADSVKGRFTISRDNAKNTVSLQKNSLKPEDTSVYYCAAYWDAVGRRYTRLYYWGQGTQVTVSS”, the “polyreactivity (PSR sort gate)” value is reported as “low polyreactivity”. For “QVQLVVSGGGLVQPGGSLRLSCAATGSTLNSYVMGWYRQAPGKERELVATIRSGSSTNYADSVKGRFTISRDNAKNTVYLLMNSLKPEDTAVYYFAADAYSLCYDSWGQGTLVTVSS”, the “polyreactivity (PSR sort gate)” value was “low polyreactivity”. For “QVQLVVSGGRLVQGAGSHRLSSAASGSIFPKYAMGWYRQAPGKERDLVATISYRGGRTYYADSVKGRFTISRDNAKNTVNLQMNCLKPEDTAVYYCNAHSQAKLDYWGQGSQVTVSS”, the “polyreactivity (PSR sort gate)” value was “low polyreactivity”. For “QVQLVYSGGGLVQAGGSLRLSCAASGSIFFVYAMGWYRQAPGKERELDAAITSGGSTKDADSVKGRFTISRDNAKNTVYLQMNSLKPEDTAVYYCAKDYKCIATEGAFDYWGQGTQVTVSS”, the “polyreactivity (PSR sort gate)” value was “low polyreactivity”. In the case of “QVQMQEIGGGLVQASGSLRLSCAASGNIFPDYFMGWYRLAPGKEREFVANITGGSTTNYADSVKGRFTISRDNAKNTVYLQINSLKPEDTAVYYCAVNFGTEQHAYWGQGTQVTVSS”, the “polyreactivity (PSR sort gate)” value is reported as “high polyreactivity”. With “QVQMQESGGGLVQAGGSLRLICAASGTISVHASMGWYRQAPGKERELVAGITDGANTYYADSVKGRFTISRDNSKNTVYLQMNSLKPEDTAVYYCAAYYGTEVHFTYWGQGTQVTVSS” the “polyreactivity (PSR sort gate)” value was “low polyreactivity”.

— the nanobody polyreactivity screen of Harvey et al. (2022)
